Data on one substance can be found in publication PMC9410886.

The target of this assay is mouse mammary tumor virus (MMTV) integrase (IN) (mouse mammary tumor virus (MMTV)). Kind of assay: cryo-EM structure; octameric MMTV STC intasome: IN assembled on branched DNA, purified on Superdex 200 in 25 mM Tris-HCl pH 7.4, 200 mM NaCl, 2 mM DTT, 25 uM ZnCl2, 10 mM CaCl2; C2 symmetry, 3.5 Å global resolution.

Usually stoichiometry N stands for the number of molecules, sites or subunits per partner or assembly. Consider “mouse mammary tumor virus (MMTV) integrase (IN) (enzyme)”, for which the stoichiometry N amounted to 8.
